Target: MHC class II RT1.B^L (Lewis rat), isolated molecules (rat (Lewis))

Substance mycobacterial hsp65 180-188 peptide … has an IC50 of 32 to 64 µM.

Source: patent publication US6673770B1, “Peptides for the treatment, prophylaxis, diagnosis and monitoring of autoimmune diseases” (Upither B.V., priority 1998, dated 2004)
